Laboratory results from patent publication US7745109B2, “Regulation of cell growth by MUC1” (Dana-Farber Cancer Insitute, Inc., priority 2003, dated 2010).

Molecular target: T1, MUC1-p120 complexes (Homo sapiens, UniProt O60716)
T1 sequence (O60716 1-968): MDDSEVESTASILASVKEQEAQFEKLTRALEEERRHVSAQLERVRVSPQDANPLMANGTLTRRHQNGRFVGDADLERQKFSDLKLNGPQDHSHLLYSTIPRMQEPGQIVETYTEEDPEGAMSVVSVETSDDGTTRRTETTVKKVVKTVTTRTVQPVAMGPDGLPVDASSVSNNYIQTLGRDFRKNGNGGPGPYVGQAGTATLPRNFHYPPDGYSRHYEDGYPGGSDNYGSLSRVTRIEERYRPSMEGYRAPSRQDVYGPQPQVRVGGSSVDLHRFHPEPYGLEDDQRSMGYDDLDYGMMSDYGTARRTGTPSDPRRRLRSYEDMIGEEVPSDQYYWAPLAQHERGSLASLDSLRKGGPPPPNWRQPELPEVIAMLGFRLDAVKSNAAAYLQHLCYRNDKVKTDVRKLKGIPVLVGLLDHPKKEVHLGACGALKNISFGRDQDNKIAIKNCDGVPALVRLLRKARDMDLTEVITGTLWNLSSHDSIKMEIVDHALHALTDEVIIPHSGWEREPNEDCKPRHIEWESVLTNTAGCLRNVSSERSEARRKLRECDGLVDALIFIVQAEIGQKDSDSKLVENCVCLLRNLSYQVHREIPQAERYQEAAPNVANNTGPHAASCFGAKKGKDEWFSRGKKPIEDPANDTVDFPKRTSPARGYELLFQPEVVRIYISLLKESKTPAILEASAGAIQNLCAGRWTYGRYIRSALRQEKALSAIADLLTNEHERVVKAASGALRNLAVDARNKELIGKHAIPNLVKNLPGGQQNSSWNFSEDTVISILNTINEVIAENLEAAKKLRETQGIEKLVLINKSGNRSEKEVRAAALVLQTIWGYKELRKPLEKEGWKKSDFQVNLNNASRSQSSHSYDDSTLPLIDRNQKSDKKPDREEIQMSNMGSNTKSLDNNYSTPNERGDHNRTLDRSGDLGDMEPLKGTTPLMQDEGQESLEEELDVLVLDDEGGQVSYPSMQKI
Assay: Inhibition of MUC1/CD binding to GST-p120 by peptides (glutathione bead precipitation, anti-MUC1/CD immunoblot)
Details: peptide incubated with MUC1/CD and GST-p120; immunoblot with anti-MUC1/CD (FIG. 7C)
Method: FIG. 7C is a pair of photographs of immunoblots. In the table above the immunoblots is indicated the mixtures of MUC1/CD, GST-p120, and GST which were incubated in the absence of inhibitor peptide (first and fourth lanes of both immunoblots) or in the presence of either a peptide with the amino acid sequence […] (SEQ ID NO:7) or a peptide with the amino acid sequence […] (SEQ ID NO:8). The four mixtures were incubated with glutathione-Sepharose 4B™ beads and proteins precipitated by the beads were subjected to immunoblot analysis with anti-MUC1/CD (“IB: anti-MUC1/CD”) (top immunoblot) or anti-p120 (“IB: anti-p120”) ([…]). The positions of MUC1/CD and p120 on the immunoblots are indicated.
To identify the site in MUC1/CD that binds to p120, full-length MUC1/CD and the N- and C-terminal fragments (FIG. 7A) were incubated with purified GST-p120. […] To further localize the site, two peptides from the overlapping region were prepared. […] These findings indicate that p120 interacts with the […] site (SEQ ID NO:7) in MUC1.

MSEYPTYHTH (listed as Homo sapiens) [peptide from the MUC1/CD region common to the N- and C-terminal fragments]
inhibition of the formation of MUC1-p120 complexes: inhibits the formation of MUC1-p120 complexes
